Some results are limits rather than exact numbers.

Assay [1] has as its target Aplysia californica acetylcholine-binding protein (Aplysia californica). The assay is described as follows: radioligand binding.
The target of assay [2] is ligand-binding domain of the human nAChR α9 subunit, de-glycosylated, His-tagged (human) (UniProt Q9UGM1). The assay is described as follows: […] (20 mM Tris-HCl pH 8.0, 1 mg/mL BSA); […].

A word on the IC50: it is the point on the concentration scale where inhibition reaches its midpoint. On to “αO-conotoxin GeXIVA, globular isomer (peptide)”, for which the IC50 in assay [1] is 2.9 µM.
In the case of “α-conotoxin RgIA, globular isomer (from UniProt P0C1D0 20-32) (peptide)”, the IC50 in assay [2] was greater than 60 µM; in assay [1] it was 0.194 µM.
As for “α-conotoxin RgIA, ribbon isomer (from UniProt P0C1D0 20-32) (peptide)”, the IC50 in assay [1] came out at 1 µM.
In turn, “αO-conotoxin GeXIVA, ribbon isomer (peptide)” gave a 50% inhibitory concentration (IC50) in assay [1] of 2.9 µM.
As to “αO-conotoxin GeXIVA, beads isomer (peptide)”, the IC50 in assay [2] turned out to be 1.63 µM; in assay [1], 2.9 µM.

(Values after paper PMC6315749 (Marine Drugs, 2018).)
